The results in this text go back to paper PMC5982138, “Disruption of the GDP-mannose synthesis pathway in Streptomyces coelicolor results in antibiotic hyper-susceptible phenotypes” (Microbiology, 2018).

Substrate in the data set: O=P(O)(O)O[C@H]1O[C@H](CO)[C@@H](O)[C@H](O)[C@@H]1O
In words: purified protein. The class given is biochemical, Streptomyces coelicolor. Conditions: GTP as co-substrate; cooperative (Hill fit).

B1: SCO4238 (Streptomyces coelicolor A3(2)) (protein)
chain: MTDPNAASRRPVQAVVLAGGQGSRLRPYTDDRPKPMVEIPGTGTPIIGHQLAWLAEEGVTDVVVSCGHLAEVLQKWLESADLPLSVTTVVETEPLGRGGGLRYAAAHLPHPDRSWYATNGDIWTRFSLRDMADFHAERDAVATLALARPRLPWGAVQTDGFGHITDFIEAPPSTFEINAGVYVFSPEFAAMLPERGDHERTTFPRLAREHRLAGFPIPQGSYWRAIDTAKDLTEAARELAALSGR
B1: the Km stood at 180 ± 30 µM.
